Laboratory results published in the nanobody polyreactivity screen of Harvey et al. (2022).

Assay: yeast display, Sf9 membrane polyspecificity reagent, FACS + sequencing; frameworks hold sequencing errors
Procedure, shortened: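 Genes from sorted yeast were amplified by colony PCR, read by MiSeq 2 × 250 sequencing and filtered on CDR length. These cells carried a synthetic nanobody library in Saccharomyces cerevisiae BJ5465 and were sorted by FACS into low and high (top ~1%) gates on anti-HA and streptavidin fluorescence. Polyreactivity is labelled according to the gate of origin.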

Sequence	polyreactivity (PSR sort gate)
QVHHVESGGGLVQAGGSLRLSCAASGSTFGAHAMGWYRQAPGKERELVAVITWNDGSTYYADSVKGRFKISRDNAKNTVYLQMNSLKPEDTAVYYCAAEYADSWSAFAWNYYYWGQGTQVTVSS	high polyreactivity
QVHHVESGGGLVQAGGSLRLSCAASGSTFYGYALGWYRQAPGKERELVAAITGSGDTTYYADSVKGRFTISRDNAKYTVYLQMNSLKPEDTAVYYCNRDYRSDLGYADQSWTDQYDHWGQGTQVTVSS	low polyreactivity
QVHHVESGGGLVQAGGSLRLSSAASGSIFTYTMGWYRQAPGKERELVAAISGGGGRTYYADSVKGRFTISRDNAKNNVYLQMKSLKPEDSAVYYCNAYQYWRYRWQYNYWGQGTQVTVSW	high polyreactivity
QVHHVESGGGLVQAGGSLRLSSAASGSIISYYAMGWSRHAPGKERELVPAINRSGGSTYYADSVKGRFTITRDNAKNTVYLQMNSLKPDDTAVYYCNAVRLYYGAGGQFQYHYWGQGTHVTVSS	high polyreactivity
QVHIVESGGGLVQAGGSLRLSSAASGRIFYRYAMGWYRQAPGKERELVAAISRRGGSTYYADSVKGRFTISRDNAKNTVYLQMNSLKPEDTAVYYCNVYRSAFSYDSWGQGTQVTVSS	high polyreactivity
QVHLEESGGGLVQAGGSLRLSCAASGRTFRHNAMGWYRQAPGKERELVAAISSSGTNTHYADSVKGRFTISRDNAKNTVYLQMNSLKPEDTAVYYCAADRWGARRKQYHENGYWGQGTQVTVSS	high polyreactivity
QVHLEESVGGLLQAGGSLRLSCVASGSTFGAYAMGWYRQAPGKERELVAAINTGDSTNYADSVKGRFTISRDNAKNTVYFQMNSLKPVDTAVYYCAAVSKHSGDELDYWGQGTQVTVSS	high polyreactivity
QVHLGESGARIDQAGGSLRLSCAASGRIFKYNAMGLYRQAPGKEREWVAAISSGGSTNYADTEKGRFTISRDNAKNTVYLQMNSLKPEDTAVYYCAADGTRVSSFHYLVWLGYWGQGTQVNVSS	low polyreactivity
QVHLGESGGGLVQAGGSLRLSGAASGFTFAVNAMGWYRQAPWNERELVAGITSGGRTNYADSVKGRFTISRDNAKNTVYLQMTSLKPEVTAVYYCAAARRYSKGYVPPYYKYRYDYWGQGTHVTVSS	high polyreactivity
QVHLLESGRGLVQAGGSLRLSCAASGRIFYTNAMGSYRQAPGKERELVAVISWGGDTTYYADSVKGRFTISRDNAKNTVYLQMNSLKPEDTAGYYCNADWGPTYEISDSWGQGNQVTVSS	low polyreactivity
QVHLQESAGGLVQAGGSLRLTCSASGYISFDASMGWYRQAPGKERELAASIPKGSSTNYADSVKGRFTIRDNATITVYLQMNSLQPEDTAVCYCAVTYPYWGDYTYWGQGTQVTVSC	low polyreactivity
QVHLQESGGGLMQAGGSQRLSSAASGSISYYSDMGWYRQAPGKEREFVAGIGYGTTTNYADSVKGRFTTSRDNGKNTVYLQMSSMKPEDTAVYYCAAYQGNGYEFYYWGQGTQVTVRS	low polyreactivity
QVHLQESGGGLVQACGSQRLSCAARGSISEGQDMGWYRRAPGKEREFVAGIAPGATTYYADSVRGRFTISRDNANNTVSLQMNSLKPEDTAVYYCAARTVTETDHDYWGQGTQVTVSS	low polyreactivity
QVHLQESGGGLVQAVGSLRLSCAASGNISEYYDMGWYRQAPGKERKFVAGIDFGAITNYADSVKGRFTISRDNAKNTEYLQMRSLKPEDTAVYYCAAGVYDWYAYDYWGQGTQVTVSS	high polyreactivity
QVHLVDSGGGKVQAGGSLRLSCAASGSIFYWNAMGWYRQAPGKERELVATITITTSTNYADSVKGRFTISRDNATHSVYLQMNSMKPEDTAVYYCNAGAPYRYLDEYNYWGQGTQVTVSS	low polyreactivity
QVHLVDSGGGLVQAGGRLRLSCAASASIFLIYAMGWYRQAPGQERELVAAINYSGVRTYYADSVKGRFTISRDNAKNTVYLQMNSLKPEDSAVYYCAVSRGGAYYQYGYWGQGTQVSVSS	high polyreactivity
QVHLVDSGGGLVQAGGSLRLSCAASGRIIYGNAMGWYRQSPGKERELVAAISSGTSTNYADSVKGRFTISRDNAKNTVYLQMNSLKPEDTAVYYCAAGSYSRYIYSLYFDFDYWGQGTQVTVSS	low polyreactivity
QVHLVDSGGGLVQAGGSLRLTCSASGFTFRYYTMGWYIQAPGKERELVAVIRSTGSTNYADSVKGRFTISRDNAKNTVYLQMNSLKPEDTAVYYFNAARGWYNPPKYGSIGFDFWGQGTQVTVSS	high polyreactivity
QVHLVESCGALVHAGGSLRLSCAASGSIFRGNAMGWYRQAPWKERELVAAITGSGGNTYYADSVKGRFTISRDNAKNTVYLQMNSLKPEDTAVYYCNADGWNTYIGPRRYSYDYWGQGTQVTISS	low polyreactivity
QVHLVESCGGLVQARGSLRLSCAASGSTIDYNSMGWYRLAPWKEREMVATITSSVGSTYYEDSVKGRYTISRDNAKNTVDLHMNCVKPEDTAVYYCAADYDYPDYYAPSWRRYTYWGQGTQVTVSS	low polyreactivity
QVHLVESGGALVQAGRSLRLSCAASGSTFTINVKGWYRQAPGKERELVAAINGGGRTNYADSVKGRFTISRDNAKNTVYLLMNSLKPEDTAVYYCAADGLSNVRQMDYWGQGTQVTVSS	low polyreactivity
QVHLVESGGCLVQAGGSLRLSCAASGSIFGDYVMAWYRQAPGKERELVAAITRGGSTYYADSVKGRFTFSRDNAKNTVYLQMNSLKPEDTAVYYCAASYYFVQWGWYYYWGQGTQVTVSS	low polyreactivity

Sequence	polyreactivity (PSR sort gate)
QVHLVESGGCLVQAGGSLRLSGAASGGNFSTYAMGWYRQAPGKERELVSSITERGGSTYYADSVKGRFTISRDNAKNTFDLQMNSLKPEDTAVYYCAADWDASWWLVPTSSYDYWGEGTQVTVSS	low polyreactivity
QVHLVESGGGFVQAGGSLGLSCAASGLTFSGNTMGCYTPAPGKERELVAAISSDGSTNYADSVKGRFTLSRDNAKYSVYLQMNSLKPEDTAVYYCNARVRYYFAFWRDYWGQGTQVTVSS	low polyreactivity
QVHLVESGGGFVQAGGSLRLSCAASGSICGSYAMGWYRQAPGKERELVAAISKSGGNTYYADSVKGRFTISRDNAKNTVYLQMNSVKPEDTAVYYCAAYGFYRWRGYDYSGQGTQVTVSS	high polyreactivity
QVHLVESGGGIVQAGGILRLSCAASGNTFYENVMGWYRQTPGKEREFVAAITYIGGNTYYADSVKGRFTISRDNAKNTVYLQMNSLKPEDTAVYYCAAEWDWPTYYTYYWYFSYDYWGQGTQVTVSS	low polyreactivity
QVHLVESGGGLDQAGGSLRLRCAATGRTFKYYAMGWYRQAPGKERELVAAISGSGGSTYYADSVKGRFTISRDNAKNTVYLQMNSLKPEDTAVYYCAAAGKETSRYAYDSWGQGTQVTVSS	high polyreactivity
QVHLVESGGGLDQARGSHRLSCAASGYTIPTYAMGWYRHAPGKERELVAAINWSGSRTYYADSVKGRFTISRDNAKNTVYLQMNSVKPEDTAFYYCAAYAYRVGPIRRHDYWGQGTQVTVSS	high polyreactivity
QVHLVESGGGLFQAGGSLPLSCAASGYIFVRYAKGWYRQAPGKEREFVAAISSSGGSTRYADSVKARFTLSRDNAKNTVYLQMNSLKPEDTAVYYGAATRVARHGSPMYYWGQGTQVTVSS	high polyreactivity
QVHLVESGGGLFQAGGSLRLSCAASGRTFYYNAMGWYRQAPGKEREFVAAITWSGTRTYYADSVKGRFTISRDNAKNTVYLQMNSLKPEDTAVYYCNARAGSGSRFGYWGEGTQVTVSS	high polyreactivity
QVHLVESGGGLFQAGGSLRLSCAASGRTFYYYGMGWYRQAPGKERELVASITNGGNTNYADSVKGRFTISRDNAKNTVYLQMNSLKPEDTAVYYCANDVPYWRPVVRYDYWGQGTQVTVSS	low polyreactivity
QVHLVESGGGLLQAGGSLRLSCAASGYTFVNYAMGWYREAPRKEMELVAAISYRGGSTSYADSVKGRFTISRDNAKNTVYLQMKSLKPEDSAVYYCAVVGQNWQSLRYDYWGQGTQVTVSS	high polyreactivity
QVHLVESGGGLVHAGGSIRLSCAASGSIFGYYAMGWYRQAPGKEREFVAAITWNGGSTYYADSVKGRFTISRDNAKNTVYLEMISLKPEDTAVYYCARTSYARFRNGWTYDHWGQGTQVSVSS	low polyreactivity
QVHLVESGGGLVLAGGSLRLSCAASGRIFSFYAMGWYRQAPGKERELVAAISSGGNTYYADSLKGRFTISRDNAKNTVYLQMNSLKPEDTAVYYCATGYRNLSSRYGYWGQGTQVSVSS	high polyreactivity
QVHLVESGGGLVLAGGSLRLSCAASVRIYTRNVMGWYRQAPGKERELVAAISTSGGSTFYADSVKGRFTISRDNAKNTVYLQMNSLKPEDTAVYYCAKRRYGKLEYWGQGTQVTVSS	high polyreactivity
QVHLVESGGGLVPAGGSLRLSCAASGGIFIFYAMGWYRQAPGKERELVAAISNVSSTNYADSVKGRFTISRDNAKNTVYLQMNSLKPEDTAVYYCNAVGVPSEYYSWGQGTQVTVSS	low polyreactivity
QVHLVESGGGLVQAAGSLRLSCAASVSTIPPNAMGWDRQAPGKEREFVAAISSVGSSYYADSVKGRFTISRDNAKKTFYLQMNSLKPEDTAVYYCAKGSWYWVEPYDYWGLGTQVTVSS	high polyreactivity
QVHLVESGGGLVQAGCSLRLSCAASGSIFYRYAMGWYRQEPGKECELVAAIRTRGGTYYADSVKGRFTISRDNAKNTVYLQIKSLKPEDTAVYYCNAGYGTWYLWYEYWGQGTQVTVSS	high polyreactivity
QVHLVESGGGLVQAGGILRLSCPASGQTFWAYAMGWYRQAPGKERELVAAISWRGGSTYYADSVKGRFTISRDNAKNTVYLQMNSLKPEDTAVYYCAAQYLYYGGRRYDFWGQGTQVTVSS	high polyreactivity
QVHLVESGGGLVQAGGILRLSCSASGRIFSVNAMGWYRQSPGKERELVAAITTRGGTTYYADSVKGRFTISRDNAKNTVYLLMNSLKPEDTAVYYCAAESSWYVYWEWAHDYWGQGTQVTVSS	low polyreactivity
QVHLVESGGGLVQAGGRLRLSCAASGFTFAHYDMGWYRQAPGKERELVAAITWSGSSTFYADSLKGRFTISRDNAKNTVYLQMYCMKPEDNAVYYCNADYDVSYWFYQDVIYDYWGQGTQVTVSS	low polyreactivity
QVHLVESGGGLVQAGGRLRLSCAASGFTIGHYAMAWYRQAPGKERELVAAISSGDRTYYADSVKGRFTISRDNAKNTVYLQMNCLKPEDTAVYFCNGVYYSWAQSARFDYWGQGTQVTVSS	low polyreactivity
QVHLVESGGGLVQAGGRLRLSCAASGIIFRLYGMGWYRQAPGKEREFVATITWRGGRTNYADSVKGRFTIARDNAKNTVYLQMNSLKPEDTAVYYCAKVVRYARSNEYDSWGQGTQVTVSS	low polyreactivity
